Patent US5082772A, “Process for preparing deacetylcephalosporin C” (priority 1988, dated 1992)

Columns and labels:
[1] = substrate: O=C(O)CCC(=O)C(=O)O; assay: purified protein, by the assay type; details: 36° C.
[2] = substrate: CC1(C)S[C@@H]2[C@H](NC(=O)CCC[C@@H](N)C(=O)O)C(=O)N2[C@H]1C(=O)O; assay: Kinetics of recombinant enzyme (Lineweaver-Burk); type: biochemical, Streptomyces clavuligerus; details: other: recombinant enzyme, pH 7.0, 50 mM HEPES buffer, 36° C.
Protocol: The kinetics of the native enzyme and recombinant enzyme were determined under the optimal reaction conditions for the enzyme, i.e., at pH 7.0 in 50 mM HEPES buffer at 36° C.

[3] = substrate: CC1(C)S[C@@H]2[C@H](NC(=O)CCC[C@@H](N)C(=O)O)C(=O)N2[C@H]1C(=O)O; assay: Kinetics of native synthase, partially purified (Mono Q eluate); type: biochemical, Streptomyces clavuligerus; details: other: native partially purified enzyme, Tris-HCl buffer, 36° C., pH 7.0

B1: recombinantly produced DAOC synthase (Streptomyces clavuligerus) (protein)
chain: MDTTVPTFSLAELQQGLHQDEFRRCLRDKGLFYLTDCGLTDTELKSAKDLVIDFFEHGSEAEKRAVTSPVPTMRRGFTGLESESTAQITNTGSYSDYSMCYSMGTADNLFPSGDFERIWTQYFDRQYTASRAVAREVLRATGTEPDGGVEAFLDCEPLLRFRYFPQVPEHRSAEEQPLRMAPHYDLSMVTLIQQTPCANGFVSLQAEVGGAFTDLPYRPDAVLVFCGAIATLVTGGQVKAPRHHVAAPRRDQIAGSSRTSSVFFLRPNADFTFSVPLARECGFDVSLDGETATFQDWIGGNYVNIRRTSKA
notes: made in house; host or cells: Escherichia coli K12 JM109 (plasmid pOW382)
Protein B1 has a Km ([1]; other: recombinant enzyme, pH 7.0, 50 mM HEPES buffer) of 18 µM and a Km [2] of 29 µM.

B2: native synthase (Streptomyces clavuligerus) (protein)
chain: MDTTVPTFSLAELQQGLHQDEFRRCLRDKGLFYLTDCGLTDTELKSAKDLVIDFFEHGSEAEKRAVTSPVPTMRRGFTGLESESTAQITNTGSYSDYSMCYSMGTADNLFPSGDFERIWTQYFDRQYTASRAVAREVLRATGTEPDGGVEAFLDCEPLLRFRYFPQVPEHRSAEEQPLRMAPHYDLSMVTLIQQTPCANGFVSLQAEVGGAFTDLPYRPDAVLVFCGAIATLVTGGQVKAPRHHVAAPRRDQIAGSSRTSSVFFLRPNADFTFSVPLARECGFDVSLDGETATFQDWIGGNYVNIRRTSKA
notes: native synthase, evaluated with the partially purified enzyme; endogenous in cells; host or cells: Streptomyces clavuligerus cells, crude extract, three-step purification (Mono Q eluate)
B2 showed a Km ([1]; other: native partially purified enzyme, Tris-HCl buffer, pH 7.0) of 22 µM and a Km [3] of 35 µM.
